US20160011207A1, “DIAGNOSIS AND THERAPY OF CHRONIC INFLAMMATION-INDUCED DISORDERS” (VIRGINIA COMMONWEALTH UNIVERSITY, priority 2012, published 2016)
“Also recorded” adds a separate entry of the source.

Key:
PR3 = biological target: T1, PR3 (Homo sapiens, UniProt P24158); assay: In vitro IGFBP-3 proteolysis by PR3, Western immunoblotting; type: biochemical; conditions: for inhibition of PR3-induced IGFBP-3 proteolysis (Western immunoblot, in words): FIG. 8 and 9A
T1 sequence (P24158 28-248): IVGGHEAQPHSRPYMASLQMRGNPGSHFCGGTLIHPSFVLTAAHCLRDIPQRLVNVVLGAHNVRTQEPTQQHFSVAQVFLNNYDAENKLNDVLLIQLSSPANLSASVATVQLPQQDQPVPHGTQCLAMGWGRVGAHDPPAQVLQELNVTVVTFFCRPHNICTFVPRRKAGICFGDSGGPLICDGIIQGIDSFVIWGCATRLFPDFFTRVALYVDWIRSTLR
Protocol: FIG. 4A-B. A, increased serum PR3 and IGFPR-3 proteolysis in high fat diet (HFD) mice. The increased IGFBP-3 proteolytic fragments and PR3 were detected in HFD compared with chow diet (CD) fed mice by Western immunoblotting using mouse IGFBP-3 or PR3 specific antibodies. […] IGFBP-3 proteolytic fragments were detected in recombinant IGFBP-3 (100 ng) and PR3 (500 ng) treated samples by Western immunoblotting.
FIG. 8. […] Recombinant IGFBP-3 (100 ng) was proteolyzed by treatment with […] PR3 for 60 min. at 37° C. (lane 2).
(§1) FIG. 9A-C. Inhibitory effect of the small peptide on NSP-induced IGFBP-3 proteolysis. […] Recombinant IGFBP-3 (100 ng) was proteolyzed by treatment with 100 nM PR3 for 60 min at 37° C. (lane 3). […] B. In vitro IGFBP-3 proteolysis by NE and CG. […] Recombinant IGFBP-3 (100 ng) was proteolyzed by treatment with NE (70 nM) and CG (200 nM) for 20 min. at 37° C. The treated samples were subject to Western immunoblotting using polyclonal IGFBP-3 antibodies. NE and CG proteolyze IGFBP-3 (lanes 2 and 7). […] C. The sequence of small inhibitory peptide (LIRCAML). Putative small inhibitory peptide binding site on PR3 ([…]) and NE ([…]), of which sequences are well conserved in both PR3 and NE.
Since it has been reported that PR3 appears to contribute to progression of chronic inflammatory diseases, we characterized PR3 as a specific IGFBP-3 protease in obese condition. The experiments were carried out using recombinant PR3 and IGFBP-3, and Western immunoblotting with IGFBP-3 specific antibody.
This peptide and/or suitable variants thereof can thus be used to treat individuals with chronic inflammation (obesity)-induced insulin resistance.

NE = biological target: T2, NE (Homo sapiens, UniProt P08246); assay: In vitro IGFBP-3 proteolysis by NE, Western immunoblotting; type: biochemical; conditions: recombinant IGFBP-3 100 ng; NE 70 nM, 20 min at 37° C.; FIG. 9B
T2 sequence (P08246 30-267): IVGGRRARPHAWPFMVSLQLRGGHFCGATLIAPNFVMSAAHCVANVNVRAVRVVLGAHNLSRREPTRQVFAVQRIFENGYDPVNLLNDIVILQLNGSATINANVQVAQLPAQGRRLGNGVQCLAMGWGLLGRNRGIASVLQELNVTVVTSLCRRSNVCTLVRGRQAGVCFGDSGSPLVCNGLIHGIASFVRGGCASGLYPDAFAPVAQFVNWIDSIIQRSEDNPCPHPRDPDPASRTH
Protocol: Inhibitory effect of the small peptide on NSP-induced IGFBP-3 proteolysis. […] B. In vitro IGFBP-3 proteolysis by NE and CG. […] Recombinant IGFBP-3 (100 ng) was proteolyzed by treatment with NE (70 nM) and CG (200 nM) for 20 min. at 37° C. The treated samples were subject to Western immunoblotting using polyclonal IGFBP-3 antibodies.

CG = biological target: T3, CG (Homo sapiens, UniProt P08311); assay: In vitro IGFBP-3 proteolysis by CG, Western immunoblotting; type: biochemical; conditions: recombinant IGFBP-3 100 ng; CG 200 nM, 20 min at 37° C.; FIG. 9B
T3 sequence (P08311 21-244): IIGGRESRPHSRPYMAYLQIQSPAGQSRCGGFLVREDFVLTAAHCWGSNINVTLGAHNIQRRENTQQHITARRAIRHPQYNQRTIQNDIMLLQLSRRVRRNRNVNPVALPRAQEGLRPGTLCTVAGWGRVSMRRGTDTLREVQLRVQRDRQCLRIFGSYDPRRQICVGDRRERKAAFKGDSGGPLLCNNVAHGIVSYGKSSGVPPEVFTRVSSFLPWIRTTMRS
Protocol: as §1

NSPs (PR3/NE/CG) = assay: In vitro IGFBP-3 protease assay with NSPs and inhibitors (Example 5); type: biochemical; conditions: recombinant IGFBP-3, NSPs (PR3/NE/CG); example written in present tense
Excerpt: Since PR3, NE and CG appear to be involved in inflammation and metabolic disorders, all three proteases are characterized with respect to IGFBP-3 proteolysis in vitro.

[1] = test system: primary adipocytes, myoblasts and hepatocytes; assay: Insulin sensitizing effects of IGFBP-3 in cells treated with proteases and inhibitors (Example 7); type: cell-based; conditions: Example 7, written in present tense
Excerpt: The levels of the three NSPs and IGFBP-3 protease activity in sera from lean and obese mice fed with CD and HFD, respectively, for 16 weeks are investigated using Western immunoblotting, ELISAs and an IGFBP-3 protease activity assay. Further, the impact of PR3-induced proteolysis and inhibitors (Prolastin and a small peptide inhibitor) on insulin sensitizing effects of IGFBP-3 in primary adipocytes (Invitrogen/Life Technologies, Grand Islands N.Y.), myoblasts and hepatocytes (Eton Bioscience, Research Triangle Park, N.C.) is investigated. The cells are treated with IGFBP-3 or PR3 proteolyzed IGFBP-3 fragments with and without insulin, and analyzed for glucose uptake, levels of insulin receptor substrates (IRSs), glucose transporters (GLUTs), adiponectin (in adipocytes) and intracellular glycogen content (in hepatocytes) using a glucose uptake assay, qRT-PCR, Western immunoblotting and a glycogen assay kit. Further experiments are performed to treat cells with IGFBP-3 and PR3 in the presence and absence of Prolastin or the small peptide inhibitor(s) described herein. The inhibitory effects of NE and CG on IGFBP-3's insulin-sensitizing effects are also determined using similar laboratory methods. The involvement of IGFBP-3R on the insulin signaling pathway is also investigated by manipulating endogenous IGFBP-3R expression using IGFBP-3R siRNAs. […]

HFD C57BL/6 mice = assay: Insulin tolerance test (ITT) in HFD-induced obese mice (Example 6); type: in vivo; conditions: 60 mg/kg AAT for 7 weeks, 0.75 unit/kg insulin i.p., 15, 60, 90 and 120 min after insulin, p<0.05
Protocol: FIG. 10. Insulin tolerance test (ITT).
Assessment of body weight, fed and fasting glucose, intraperitoneal glucose tolerance test (IPGTT) and insulin tolerance test (ITT) were performed at 8, 15 weeks of HFD.
Weekly assessment of body weight was performed. IPGTT and ITT were analyzed at 8, 15 weeks of HFD.
Description of murine models: Six week old male C57BL6/J BomTac mice were obtained from Taconic, Hudson, N.Y., and kept at 22° C. on a 12:12-h light-dark cycle, with food and water ad libitum. All mice were placed on a normal rodent diet (ND) D12450B for 1 week and then divided into two groups and fed with ND and high fat diet (HFD) D12492 for 16 weeks. ND (D12450B, calories provided by fat 10%, protein 20%, Carbohydrate 70%) and HFD (D12492, calories provided by fat 60%, protein 20%, Carbohydrate 20%) were from Research Diets, new Brunswick, NJ52.
Insulin tolerance test (ITT): After a 7-day recovery period, an ITT was performed on the same mice. […]
Data Analysis: 1) Mice with HFD feeding and with/without NSP inhibitor treatments awere studied with assessment of body weight, fed and fasting glucose, IPGTT and ITT. Statistical analysis: Differences between groups are determined by ANOVA followed by Turkey post hoc tests or by Student t Test as appropriate. Significance is considered as p<0.05.

NSPs (PR3, NE, and CG) = assay: NSP-induced IGFBP-3 proteolysis with inhibitors (Example 10); type: biochemical; conditions: Example 10, written in present tense
Excerpt: The biological impact of NSPs (PR3, NE, and CG) on IGFBP-3 proteolysis and the antitumor actions of IGFBP-3/IGFBP-3R signaling is investigated, e.g. to characterize specific mechanisms by which NSPs modulate the biologic impact of IGFBP-3/IGFBP-3R on cell proliferation, apoptosis in CRC. Accordingly, the impact of NSPs on the antitumor and anti-inflammatory functions of IGFBP-3 in a variety of colon cancer cells (HT-29, Caco-2, HCT116 and LoVo) is investigated using recombinant IGFBP-3 (intact or NSP-proteolyzed fragments), NSPs and their inhibitors. The involvement of IGFBP-3R on IGFBP-3's effects is tested by manipulating endogenous IGFBP-3R expression using additional lentiviral-IGFBP-3-GFP, IGFBP-3R siRNAs, Adeno-IGFBP-3R, NSPs and protease inhibitors in the same cell systems.
Human and mouse specific IGFBP-3 antibodies (Abs)20, IGFBP-3R Abs20, IGFBP-3 protease assay, and adeno-, retro- and lenti-viral plasmids transfused with IGFBP-3, IGFBP-3R or their small hairpin RNAs (shRNAs) are utilized in these investigations.
The differential impact of intact IGFBP-3 and IGFBP-3 fragments on induction of apoptosis, cell proliferation in CRC cells is quantified using a Cell death assay, WST assay and qRT-PCR and immunoblotting.

AOM-DSS-treated mice = assay: CAC mouse model, AOM-DSS-treated mice (Example 10); type: in vivo; conditions: AAT 60 mg/kg once weekly, Example 10, written in present tense
Protocol: Studies are also carried out to determine whether administration of the NSP inhibitor (Aralast) inhibits progression of CRC in a CAC mouse model.
First, serum NSPs, IGFBP-3 and IGFBP-3 proteolysis are determined during CRC development in AOM-DSS-treated mice with/without Aralast administration (60 mg/kg body weight once weekly) (6 mice/group). Serum NSPs (PR3,NE,CG), IGFBP-3, and proteolyzed IGFBP-3 and cytokines ([…], IL-6, IL-1β) are analyzed biweekly using Western immunoblotting, IGFBP-3 protease activity assays and mouse specific ELISAs (ELISA kits for PR3 from USCN life science; NE from Biotang USA; CG from CusaBio; TNF-α from Thermo Scientific; and IGFBP-3 from Sigma).
After sacrificing, mice colons are removed and flushed with phosphate-buffered saline (PBS) for macroscopic inspection. Tumor counts are performed in a blinded fashion. Tumor volume (V) is calculated […] by measuring length (L) and width (W) of the tumor with calipers and using the following formula: V={W×L×[(W+L)/2]}×0.52. Using paraformaldehyde fixed or fresh frozen tissue the proteins/genes involved in cell proliferation and inflammatory signaling are examined using Ki67 staining, apoptosis detection kit (Roche Dignostics GmbH) as well as immunoblotting and qRT-PCR for TNF-α, IL-6, IL-1β, NF-κB, IκBκ, IGFBP-3 and IGFBP-3R. […]

[2] = recombinant IGFBP-3 100 ng, 100 nM PR3, 60 min at 37° C.

inhibition of IGFBP-3 proteolysis induced by 100 nM PR3 treatment (PR3; peptide at 0.5 μM, recombinant IGFBP-3 100 ng, 100 nM PR3, 60 min at 37° C.)	inhibitory effect on PR3 activity compared with AAT (PR3; peptide at 20 μM versus 100 nM AAT, 100 nM PR3)	Compound	inhibition of PR3-induced IGFBP-3 proteolysis (Western immunoblot, in words) (PR3; [2])	inhibition of IGFBP-3 proteolysis by NE (in words) (NE)	inhibition of IGFBP-3 proteolysis by CG (in words) (CG)	NSP-induced proteolysis of IGFBP-3 (Example 5, in words) (NSPs (PR3/NE/CG))	effect on protease-induced IGFBP-3 proteolysis and inhibition of IGFBP-3's normal metabolic function [1]	inhibition of PR3-induced IGFBP-3 proteolysis (FIG. 4B, in words) (PR3; recombinant IGFBP-3 (100 ng) and PR3 (500 ng))	blood glucose levels in ITT versus PBS control (HFD C57BL/6 mice)	NSP-induced proteolysis of IGFBP-3 (Example 10, in words) (NSPs (PR3, NE, and CG))	tumor incidence and size compared with untreated mice (AOM-DSS-treated mice)
more than 50%	comparable to that of 100 nM AAT	LIRCAML (Synthetic peptide inhibitor)	potent inhibitory effect; also recorded: inhibited IGFBP-3 proteolysis in a dose-dependent manner (0.5-20 μM); also recorded: inhibited IGFBP-3 proteolysis in a does-dependent manner (0.05-1 μM)	inhibited IGFBP-3 proteolysis by NE or CG in a dose-dependent manner (0.5-1 μM)	inhibited IGFBP-3 proteolysis by NE or CG in a dose-dependent manner (0.5-1 μM)	blocked	reverse this effect				
		α-1-antitrypsin [AAT]	inhibited		inhibited	blocked		completely inhibited; also recorded: Few IGFBP-3 proteolytic fragments were detected	significantly lower	blocked	decreases tumor incidence and size
		CC(C)[C@@H]1C(=O)N(S(C)(=O)=O)[C@@H]2CCN(C(=O)/C=C/CN3CCCCC3)[C@H]21.Cl [GW311616A, reference compound]					reverse this effect				
